What all share (assay): BLI; BLItz, Ni-NTA biosensor; phospho-His-SrcKD or variant (58 μM, 5 μL) immobilised as bait for 3 min; rPTPεD1 or variant as analyte, association 120 s, dissociation 120 s; 20 mM Tris-HCl pH 7.5, 50 mM NaCl, 5 mM DTT; 100 μM ATP and 1 μM CSK added before every immobilisation; global fit
Assay [1] deals with phospho-His-SrcKD (phosphorylated His-tagged Src kinase domain, Trp 260-Leu 533, K295M/Y416F) (UniProt P00523).
For assay [2], the target named is phospho-His-SrcKD-D518K (phosphorylated His-tagged Src kinase domain, Trp 260-Leu 533, K295M/Y416F and a change at 518) (UniProt P00523).
Assay [3] addresses phospho-His-SrcKD-E486A (phosphorylated His-tagged Src kinase domain, Trp 260-Leu 533, K295M/Y416F/E486A) (UniProt P00523).

Turning to “rPTPεD1 (D1 domain of rPTP epsilon, Ser 101-Thr 400, C335A) (domain or fragment)”, in assay [1], the dissociation constant Kd worked out at 26.2 µM, the off-rate (koff) is 0.0284 s⁻¹ and the kon turned out to be 1080 M⁻¹ s⁻¹. In assay [2], the Kd amounted to 184 µM, the off-rate constant (koff) is 0.0661 s⁻¹ and the on-rate constant (kon) turned out to be 360 M⁻¹ s⁻¹. In assay [3], this substance displayed a dissociation constant (Kd) of 80.4 µM, a koff of 0.0476 s⁻¹ and a kon of 592 M⁻¹ s⁻¹.

Consider “rPTPεD1-R220E (D1 domain of rPTP epsilon, Ser 101-Thr 400, C335A/R220E) (domain or fragment)”, for which, in assay [1], the equilibrium dissociation constant (Kd) came out at 168 µM, the off-rate constant (koff) was determined as 0.0341 s⁻¹ and the kon came out at 202 M⁻¹ s⁻¹.

For the substance “rPTPεD1-K237D (D1 domain of rPTP epsilon, Ser 101-Thr 400, C335A/K237D) (domain or fragment)”, in assay [1], the dissociation constant (Kd) was 352 µM, the koff turned out to be 0.0853 s⁻¹ and the on-rate (kon) stood at 242 M⁻¹ s⁻¹.

Broadly, the Kd is the constant that tells how readily two partners part at equilibrium. By koff is commonly meant a measure of how fast the partners let go of each other. Low readings indicate slow dissociation, high ones fast dissociation. The term kon denotes a measure of how fast the partners come together.

The values are drawn from PMC11268095.
